B1: Myocardin, residues 363 to 406; numbered along this chain, Q8IZQ8 (parent)
chain: KPGPLPPNLDDLKVSELRQQLRIRGLPVSGTKTALMDRLRPFQD

Variants of: B1
Test: abundance fitness (aPCA) (normalised: wild type 0, dead -1); higher = more abundant; growth selection in yeast, the domain comes from the species named
Conditions: Homo sapiens

Abundance fitness of substitutions, site by site:
G25: E -0.274, V -1.38, C -0.342, Q -0.325, T -0.56, A -0.39, P -0.591, H 0.308
L26: W -0.951, S -0.562, V -0.732, H -1.1, P -0.676, E -0.293, G -0.586
N8: M -0.274, P -0.541, I -0.408, E -0.232, Q -0.154, W -0.915, R -0.116
K1: D -0.268, Y -0.608, S -0.672, W -0.98, C -0.286, V -0.643, L -0.666, T -0.521, G -0.47, M -0.835
Q43: N -0.213, R -0.232, T 0.1, W -0.106, C -0.005, K -0.503
P2: Q 0.374, W -0.231, R 0.085, F 0.328, N -0.011, T -0.016
L9: P -0.513, V -0.024, R -0.524, A -0.876, G -0.491, W -0.615, Q -0.278, S -0.605
D44: L -0.494, S -0.313, Q -0.206, K 0.195
T33: P -0.17, V 0.016, F -0.144, K 0.016, W -0.467, Q -0.385, D 0.138, R -0.055, C -0.072
Q19: H -0.412, A -0.194, E 0.029, C -0.464
S29: M -0.003, N -0.264, F -0.245, R -0.362, K -0.113, Q 0.006, A -0.071, T -0.001, G 0.042, I -0.376
P6: T -0.197, W -0.484, M -0.135, N -0.34, E -0.131, S -0.095, A -0.02, L -0.26, Q -0.267
K32: C -0.763, V -0.357, T -0.349, L -0.784, R -0.012, A -0.449, M -0.696
R38: Y -0.519, C -0.929, N -0.765, W -1.02, G -0.469, L -0.671, A -0.592, D -0.795, M -0.445
R24: T -0.905, Y -1.16, M 0.092, P -0.456, F -0.819
G30: V -0.894, L -0.879, A -0.967, E -0.607, S -0.779
L17: W -0.798, M -0.265, C -1.31, A -0.583, V -0.606, I -0.6, G -0.649, T -0.779
D11: C -0.272, S 0.27, R -0.135, N -0.004, G -0.074, M 0.063, T 0.135
P27: T -0.39, L -0.657, Y -0.891, A -0.376, D 0.162
P7: D 0.052, V 0.227, M 0.239, A 0.12, T 0.018, L -0.001, W -0.414, I 0.107
M36: P -0.419, Q -0.398, S -0.64, G -0.668, D -0.505, T -0.27
V14: R -1.02, M -0.116, Q -0.994
R40: T -0.12, M -0.25, G -0.294, C -0.499, S -0.107, A 0.092, D -0.614, N -0.698, P -0.346
L5: G -0.283, Q -0.131, C -0.044, F -0.307, D -0.245, N -0.276, I 0.011, H -0.311
L39: I -0.474, E -0.562, G -0.528, T -0.625, C -0.785, F -0.755, A -0.641, S -0.601
L35: I 0.092, H -0.943, Q -0.226, E -0.293, T -0.551, S -0.418, W -0.561, G -0.489, R -0.799
P41: D -0.325, A 0.037, V -0.11, S 0.064, E 0.087, H -0.14, W -0.161, K -0.305, F -0.27, R -0.256, M -0.231, T -0.351
L12: S -0.274, E -0.369, F 0.053, D -0.429, V -0.497, G -0.638, N -0.507, C -0.499, Y 0.298
V28: I 0.217, H -0.264, M 0.017, Q 0.027, C 0.207, D 0.294, S 0.123, E 0.082, P -0.198, G -0.168, W -0.13
A34: K -0.4, W -1.14, M -0.262, E 0.011, T -0.076, V 0.026, P -0.825, Q -0.601, C -0.467
T31: R -0.319, G -0.214, P -0.222, K -0.217, C -0.052, D 0.155
P4: Y 0.368, N 0.463, C -0.079, L 0.102, H 0.093, Q 0.136, S 0.078, G -0.229, A 0.069
R18: Q -0.179, H -0.321, A -0.366, I -0.133, L -0.44, V -0.312, F -0.481, G -0.888, K 0.032
D37: F -1.21, N 0.227, T -0.452, K -0.245, A -0.265, E 0.246, V -0.632
L21: C -0.271, M -0.321, K -0.296, S -0.94
I23: R -0.211, L -0.021, G -0.24, P -0.605, C -0.315, T -0.261, E 0.043, A 0.091, Y 0.013, F -0.378
S15: V -0.243, L -0.688, F -0.22, G -0.122, T 0.071, C -0.168, P -0.346, M -0.245, Y -0.274, H 0.023
E16: M -0.615, H -0.983, L -0.826, Y -0.323, P -0.939, A -0.295, V -0.481, D -0.27, S -0.47
D10: N -0.078, Y 0.026, K -0.076, Q -0.163, T -0.178, G 0.311, R -0.147, E 0.287, S -0.257, W 0.104
G3: M 0.146, R 0.016, P -0.265, D -0.228, T 0.099, S -0.077, K 0.245
F42: N -0.736, G -0.278, K -0.09, W -0.124, C -0.138, L 0.111, D -0.061, P -0.02, R -0.12
R22: S -0.21, W -0.771, P -0.818, H -0.624, T -0.258, L -0.374, V -0.557, Q -0.928
Q20: K -0.314, D -0.608, L 0.073, A 0.004, H 0.073, W -0.767, I 0.05, P -0.785, V -0.57, G -0.697
